From article PMC2670979 (2009) come the findings set out here.

The labels stand for the following.
B1: GST-Miro1 WT [not stated] / TRAK2 (amino acids 476–700) [modified: 35S-methionine label; 35S-methionine label] [not stated] (parent complex)
chain 1: MKKDVRILLVGEPRVGKTSLIMSLVSEEFPEEVPPRAEEITIPADVTPERVPTHIVDYSEAEQSDEQLHQEISQANVICIVYAVNNKHSIDKVTSRWIPLINERTDKDSRLPLILVGNKSDLVEYSSMETILPIMNQYTEIETCVECSAKNLKNISELFYYAQKAVLHPTGPLYCPEEKEMKPACIKALTRIFKISDQDNDGTLNDAELNFFQRICFNTPLAPQALEDVKNVVRKHISDGVADSGLTLKGFLFLHTLFIQRGRHETTWTVLRRFGYDDDLDLTPEYLFPLLKIPPDCTTELNHHAYLFLQSTFDKHDLDRDCALSPDELKDLFKVFPYIPWGPDVNNTVCTNERGWITYQGFLSQWTLTTYLDVQRCLEYLGYLGYSILTEQESQASAVTVTRDKKIDLQKKQTQRNVFRCNVIGVKNCGKSGVLQALLGRNLMRQKKIREDHKSYYAINTVYVYGQEKYLLLHDISESEFLTEAEIICDVVCLVYDVSNPKSFEYCARIFKQHFMDSRIPCLIVAAKSDLHEVKQEYSISPTDFCRKHKMPPPQAFTCNTADAPSKDIFVKLTTMAMYPHVTQADLKSSTFWLRASFGATVFAVLGFAMYKALLKQR
chain 2: EDSDLATALHRLSLRRQNYLSEKQFFAEEWERKLQILAEQEEEVSSCEALTENLASFCTDQSETTELGSAGCLRGFMPEKLQIVKPLEGSQTLHHWQQLAQPNLGTILDPRPGVITKGFTQMPKDAVYHISDLEEDEEVGITFQVQQPLQLEQKPAPPPPVTGIFLPPMTSAGGPVSVATSNPGKCLSFTNSTFTFTTCRILHPSDITQVTPSSGFPSLSCGSSA

This assay covers variants of B1. Put plainly: GST pull-down of in vitro translated 35S-labeled protein; 2 mM Ca2+; normalized to 100 at 0 mM Ca2+; parent: 110; read off a plot.
With chain 1 E208K, chain 1 E328K, the screen value is about 120.
